Measured values as given in patent US20190321466A1 (CTTQ AKESO SHANGHAI BIOMED TECH, published 2019).

Biological target: T1, PD1 antigen obtained by cleaving PD1-mFc with TEV protease, labeled with biotin (UniProt Q15116 25-170, limits assumed, labeled with biotin (site not stated))
T1 construct: also called antigen PD1
Assay: Fortebio Octet, biotin-PD1 on SA sensor, antibody in solution
Description: 2. […] The dissociation of antigen and antibody were also in PBST.

T1 sequence (Q15116 25-170 limits assumed): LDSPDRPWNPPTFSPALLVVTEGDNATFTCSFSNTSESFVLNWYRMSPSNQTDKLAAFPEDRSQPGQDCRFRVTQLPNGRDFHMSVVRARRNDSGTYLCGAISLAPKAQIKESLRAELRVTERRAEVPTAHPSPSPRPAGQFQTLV

B1: monoclonal antibody 14C12 (secreted by hybridoma cell line LT003) (antibody, V domains shown)
VH: EVKLVESGGGLVKPGGSLKLSCAASGFAFSSYDMSWVRQTPEKRLEWVATISGGGRYTYYPDSVKGRFTISRDNARNTLYLQMSSLRSEDTALYYCANRYGEAWFAYWGQGTLVTVSA
VL: DIKMTQSPSSMYASLGERVTFTCKASQDINTYLSWFQQKPGKSPKTLIYRANRLVDGVPSRFSGSGSGQDYSLTISSLEYEDMGIYYCLQYDEFPLTFGAGTKLEL
notes: Mouse antibody purified from hybridoma supernatant; also called PD1-14C12
For B1, the Kd was 0.0181 nM, the koff was 6.12e-06 s⁻¹ and the kon was 338000 M⁻¹ s⁻¹.
